B1: HEEH_KT_rd6_0007 (parent)
chain: SIEEEIKKAEEAKEKGKTFIHGDFVATTEELLDELLKRLRKKL

Variants of: B1
Experiment: folding stability dG (cDNA display proteolysis); higher = more stable
Settings: PBS, room temperature

Folding stability dG [kcal/mol], by site and new letter:
I2: Y 0.989, W 1.04, V 1.08
K8: V 0.672, E 0.75, F 0.758, T 0.724, G 0.922, W 1.02, N 0.961, A 1.21, M 1.26, R 1.42, L 1.23, I 0.785, Q 1.22, P 0.542, S 0.904, Y 0.777, D 0.721, H 0.921
K15: I 0.793, V 0.735, N 1.32, R 1.19, E 0.916, D 0.807, W 1.07, L 1.4, T 1.29, F 1.15, Y 1.13, Q 1.4, M 1.37, G 1.08, H 1.3, A 1.33, S 1.19, P 0.667
E11: N 0.868, L 1.1, F 0.946, I 1.03, T 1.04, G 0.705, S 0.928, D 1.27, K 0.817, H 0.939, Y 1.17, C 1.5, R 0.941, Q 1.06, A 1.16, M 1.05, W 1.2, V 0.953, P 0.576
G16: T 0.757, S 0.957, A 0.667, K 1.3, E 0.895, D 0.785, N 1.08, P 0.298, R 0.873, M 0.701, W 1.3, I 1.03, L 1.22, Y 1.12, H 1.25, V 0.73, F 1.2, Q 0.935
E14: V 1.25, T 1.3, R 1.68, S 1.4, A 1.73, W 1.37, N 1.21, G 1.19, K 1.56, I 1.45, M 1.42, L 1.58, H 1.21, D 1.1, F 1.31, Y 1.33, P 0.587, Q 1.42
I20: Q 1.27, H 0.961, S 0.913, C 2.04, G 0.637, V 1.27, E 0.927, D 0.774, N 0.801, R 0.918, A 1.03, L 0.842, M 0.979, T 1.25, F 0.891, K 0.994, P 0.732
T18: I 1.67, N 1.07, Y 1.37, L 1.07, E 1.12, H 1.16, K 1.1, W 1.76, M 1.32, D 0.988, S 1.21, R 1.09, F 1.3, G 1.23, V 1.48, Q 1.28, P 1.32, A 1.3
I6: P 0.487, V 0.729, H 0.603, K 0.651, T 0.576, W 0.615, S 0.742, A 0.662, R 0.719, D 0.648, G 0.684, Q 0.793, L 1.04, M 0.782, Y 0.676, E 0.593, F 0.542, N 0.587
E3: F 1.23, N 0.919, Y 1.28, P 0.866, A 1.27, M 1.45, T 1.04, Q 1.22, R 1.2, H 1.12, S 1.07, D 1.01, L 1.52, I 1.36, W 1.7, K 1.16, G 0.881, V 1.24
K17: F 1.82, R 1.13, P 0.793, Q 1.47, W 1.84, C 2.53, Y 1.71, N 1.36, G 1.48, T 1.43, A 1.23, V 1.43, M 1.66, H 1.44, E 1.67, L 1.9, D 1.19, S 1.18, I 1.59
K7: E 0.935, C 1.38, V 0.878, N 0.942, F 0.95, D 0.626, L 1.14, P 0.656, I 1.01, H 1.06, S 0.891, Q 1.25, G 0.824, M 1.16, R 1.6, A 1.31, W 0.964, T 0.994, Y 0.923
E10: D 0.699, Y 1, G 0.706, A 0.805, R 1.02, T 1.06, Q 1.2, M 1.44, C 1.49, L 1.58, W 1.06, I 1.32, V 1.17, K 1.04, N 0.992, S 0.844, F 1.07, H 0.9, P 0.607
K13: V 0.79, Y 1.07, P 0.543, L 1.16, H 0.747, F 0.912, Q 0.869, R 1.3, T 0.5, S 0.704, A 0.86, M 1.01, I 0.852, C 1.82, E 0.58, W 1.09, N 0.575, D 0.676, G 0.684
A12: I 0.771, T 0.618, D 0.737, V 0.505, Q 0.606, L 0.688, E 0.703, G 0.482, M 0.749, R 0.639, H 0.753, P 0.459, F 0.689, S 0.754, N 0.603, K 0.526, C 1.78, Y 0.791, W 0.691
E5: D 1.23, A 2.05, M 2.05, K 1.06, V 2.13, W 2.01, Q 1.61, Y 1.56, R 1.09, F 1.74, P 0.677, L 2.35, H 1.11, G 0.897, I 2.4, S 1.31, N 1.05, T 1.84
E4: S 1.12, V 0.909, N 1.02, T 0.909, Y 1.06, I 1.03, A 1.25, F 1.03, P 0.777, G 0.862, C 1.78, R 1.07, Q 1.11, L 1.21, M 1.26, W 1.27, H 1.06, D 1.27, K 1
A9: C 1.78, T 0.679, H 0.516, N 0.608, K 0.705, L 1.44, P 0.556, S 0.634, E 0.511, G 0.708, M 0.926, Q 0.596, V 1.68, F 0.698, Y 0.662, R 0.739, I 1.5, W 0.879, D 0.579
F19: E 0.58, D 0.713, P 0.637, W 0.964, H 0.937, Y 1.49, M 0.895, Q 0.715, L 0.751, N 0.745, S 0.618, I 0.902, V 0.861, R 0.752, T 0.77, G 0.793, K 0.811, A 0.757
